Measurements reported in article PMC11044963, “Probing the CRL4^DCAF12 interactions with MAGEA3 and CCT5 di-Glu C-terminal degrons” (PNAS Nexus, 2024).

Tests used:
[1] = molecular target: FITC-labeled CCT5 C-terminal degron peptide (human); assay: fluorescence polarisation; direct binding; protein titrated from 4 µM in two-fold steps against 20 nM FITC peptide; 20 mM Tris pH 7.5, 150 mM NaCl, 5% glycerol, 0.5 mM TCEP, 0.01% Triton; 45 min at room temperature
[2] = molecular target: FITC-labeled MAGEA3 C-terminal degron peptide; assay: as above

Kd [1]: 130 nM
Kd [2]: 60 nM
Substance: DDB1–DCAF12–DDA1 complex (from UniProt Q5T6F0 1-453; Q5T6F0 1-453; Q9BW61 1-102)
